Columns and labels:
human TGF-β1 [1] = molecular target: T1, human TGF-β1 (human, UniProt P01137 279-390); assay: SPR, Biacore T200, TGF-β homodimer immobilized on CM5 chip, Ab1 injected, 1:1 model
T1 construct: mature; also called TGF-βΙ; TGF-p1

[2] = molecular target: T2, murine TGF-β1 (identical in amino acid sequence to rat TGF-β1) (mouse, UniProt P04202 279-390); assay: as above
T2 construct: mature; also called Murine and Rat TGF-βΙ; murine/rat TGF-β1

human TGF-β2 = molecular target: T3, human TGF-β2 (human, UniProt P61812 21-414); assay: as above
T3 chain: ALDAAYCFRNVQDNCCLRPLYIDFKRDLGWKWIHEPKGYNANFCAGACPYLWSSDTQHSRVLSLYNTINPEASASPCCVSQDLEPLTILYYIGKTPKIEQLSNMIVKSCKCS

human TGF-β1 [3] = molecular target: T1, human TGF-β1; assay: cell-based or functional assay

T1 sequence (P01137 279-390 limits assumed): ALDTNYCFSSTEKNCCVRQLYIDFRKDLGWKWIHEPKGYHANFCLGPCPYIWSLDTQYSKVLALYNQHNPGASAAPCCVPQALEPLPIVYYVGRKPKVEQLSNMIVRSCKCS
T2 sequence (P04202 279-390 limits assumed): as the sequence (P01137 279-390 limits assumed) above, with A75S counted along it

B1: Ab1 (antibody, human IgG4 S228P, kappa)
heavy: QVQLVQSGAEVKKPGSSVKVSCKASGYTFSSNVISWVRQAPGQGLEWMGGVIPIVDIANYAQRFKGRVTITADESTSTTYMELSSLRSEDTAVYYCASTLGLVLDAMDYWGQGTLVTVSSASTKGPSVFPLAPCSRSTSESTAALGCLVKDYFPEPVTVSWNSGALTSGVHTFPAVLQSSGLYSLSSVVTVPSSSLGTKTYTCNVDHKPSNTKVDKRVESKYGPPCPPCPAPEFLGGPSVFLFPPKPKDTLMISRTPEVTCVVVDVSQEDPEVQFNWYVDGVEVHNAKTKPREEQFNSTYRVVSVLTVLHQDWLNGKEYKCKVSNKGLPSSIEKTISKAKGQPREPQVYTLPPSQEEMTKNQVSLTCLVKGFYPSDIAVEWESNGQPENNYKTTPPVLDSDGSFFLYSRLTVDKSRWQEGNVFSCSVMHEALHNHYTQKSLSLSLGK
light: ETVLTQSPGTLSLSPGERATLSCRASQSLGSSYLAWYQQKPGQAPRLLIYGASSRAPGIPDRFSGSGSGTDFTLTISRLEPEDFAVYYCQQYADSPITFGQGTRLEIKRTVAAPSVFIFPPSDEQLKSGTASVVCLLNNFYPREAKVQWKVDNALQSGNSQESVTEQDSKDSTYSLSSTLTLSKADYEKHKVYACEVTHQGLSSPVTKSFNRGEC
notes: also called anti-TGF-β antibody Ab1; pan-TGF-β antibody
Kd (human TGF-β1 [1]): 1.48 nM
Kd [2]: 2.8 nM
Kd (human TGF-β2): 3 nM
NFAT-driven luciferase activity, fold change against isotype control Ab (human TGF-β1 [3]): 1.45 fold change
NFAT-driven luciferase activity, fold change against no Ab control (human TGF-β1 [3]): 1.45 fold change

From patent publication WO2018134681A1 (dated 2018)
